Measured values taken from the supplement of paper PMC10567573.

B1: PBXIP1 (parent)
chain: EKQKQPRWREGTKDSHDPLPSWAE

Variants of: B1
Experiment: protein stability index of a GFP-peptide fusion (GPS, HEK-293T) (PSI 1-6); higher = more stable
Conditions: c terminus: a fixed tail appended
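Also: lentivirally expressed fusions sorted by FACS into six bins by GFP to DsRed ratio, PSI derived from sequencing read proportions per bin multiplied by bin number.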

Protein stability index of substitutions, site by site:
E10: W 1.53; I 2.1; F 2.27; D 3; C 2.32; A 1.14; R 2.2; L 1.96; Q 1.83; G 1.05; S 1.18; T 3.55; K 2.34
E1: P 1.22; Q 2; T 2.38; R 2.19
G11: Q 1.68; D 2.02; H 3.13; L 2.31; E 1.15; I 1.69; R 1.46; Y 1.98; P 1.77; S 2.61; M 2.78; F 2.88
Q3: C 2.21; H 1.78; G 2.03; W 1.41; Y 1.32; L 1.59; N 2.58; S 1.55; T 1.89; R 2.14; P 1.63; V 1.34
D14: F 1.46; P 1.83; Q 1.87; C 1.1; M 1.96; K 2.66
P6: E 1.89; T 3.31; G 2.11; L 2.79; A 1.3; F 2.43; S 2.4; C 1.48; H 2.53; W 1.98; D 2.48; Y 3.67
W8: Y 1.94; C 2.31; F 1.88; M 2; E 3.08; V 2.05; T 1.58; R 2.54; N 3.03; A 2.09; G 2.04; I 2.06; H 2.41; D 3.2; K 2.46
K13: V 1.52; D 2.18; N 2.35; H 2.96; Q 1.29; A 2.15; C 1.28
R9: L 2.48; H 1.04; W 1.66; P 1.84; S 1.39; I 1.89; E 3.15; K 2.32; T 2.17; D 1.76; M 2.35; Q 1.34; C 1.39; A 1.79
T12: L 2.31; A 2; R 2.71; E 1.61; F 1.33; M 2.69; Y 1.01; K 2.38; H 2.89; I 2.34
K2: S 2.15; I 2.63; D 2.04; P 1.77; W 1.43; Q 2.69; G 2.97; H 1.66; E 3.03; Y 2.81; C 2.96; N 1.46; R 2.02; F 1.85
K4: F 1.99; E 1.59; M 1.54; V 1.21; N 2.02; S 1.85; A 1.72; R 2.07; Y 3; D 1.72; T 1.92; C 2.63; G 1.89; H 2.66; I 3.8; Q 1.92; W 1; P 1.56
Q5: R 2.57; G 1.99; M 1.55; E 2.66; L 1.82; F 2.09; H 2.11; P 1.68; Y 2.37; K 2.18; C 3.72; A 3.71; D 1.99; N 2.1
R7: H 2.05; C 5.92; G 2.14; M 1.94; K 2.02; A 1.59; P 2.33; T 1.57; S 1.23; L 1.32; N 3.14; D 2.47; Y 1.47; W 2.53; F 2.54; I 1.96
